Test results reported in patent US20140037624A1.

Columns and labels:
[1] = molecular target: human FGFR4 at the cell surface (stably transfected HEK293 and L6 cells; endogenous on human liver cancer cell lines) (human) (UniProt P22455); experiment: cell-based or functional assay
[2] = molecular target: T1, human FGFR4-Fc chimeric protein (human) (UniProt P22455); experiment: solid phase binding assay, LD1 on immobilized hFGFR4-Fc, OD 450 nm
T1 sequence: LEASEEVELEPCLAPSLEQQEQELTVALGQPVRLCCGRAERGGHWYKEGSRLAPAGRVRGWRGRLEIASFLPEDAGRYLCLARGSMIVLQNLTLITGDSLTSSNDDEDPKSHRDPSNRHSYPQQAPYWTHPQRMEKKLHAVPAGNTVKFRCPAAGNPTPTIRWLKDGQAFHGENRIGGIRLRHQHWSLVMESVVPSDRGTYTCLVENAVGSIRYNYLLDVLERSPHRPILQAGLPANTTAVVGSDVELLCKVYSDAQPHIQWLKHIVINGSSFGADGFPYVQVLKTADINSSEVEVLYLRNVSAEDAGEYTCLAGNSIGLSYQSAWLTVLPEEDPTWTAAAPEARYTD

[3] = molecular target: T2, mouse FGFR4-Fc chimeric protein (mouse) (UniProt Q03142); experiment: solid phase binding assay, LD1 on immobilized mFGFR4-Fc, OD 450 nm
T2 sequence (looked up): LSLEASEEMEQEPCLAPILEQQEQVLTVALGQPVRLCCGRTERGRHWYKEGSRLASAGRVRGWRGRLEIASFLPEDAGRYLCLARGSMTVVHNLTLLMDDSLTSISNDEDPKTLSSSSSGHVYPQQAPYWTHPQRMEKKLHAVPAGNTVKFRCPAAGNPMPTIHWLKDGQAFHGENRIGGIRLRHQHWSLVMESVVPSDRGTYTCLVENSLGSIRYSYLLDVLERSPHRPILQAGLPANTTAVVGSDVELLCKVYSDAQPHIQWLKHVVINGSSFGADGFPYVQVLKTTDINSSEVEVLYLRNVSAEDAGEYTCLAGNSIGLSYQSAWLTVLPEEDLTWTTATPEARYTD

[4] = molecular target: human FGFR4 at the cell surface (stably transfected HEK293 and L6 cells; endogenous on human liver cancer cell lines) (human) (UniProt P22455); experiment: flow cytometry on HEK293 cells stably transfected with hFGFR4, RFU

B1: chimeric LD1 (murine LD1 variable domains with human kappa and human IgG1 constant domains) (antibody, V domains shown)
VH: EVQLQQPGAVLVRPGTSVKLSCKASGYTFTNHWMNWVKQRPGQGLEWIGMIHPSDSETTLDQKFKDKATLTVDKSSSTAYMQLNRPTSEDSAVYYCTRGDISLFDYWGQGTTVTVSS
VL: DIQMTQTTSSLSASLGDRVTITCRTSQDISNFLNWYQQKPDGTFKILISYTSRLHSGVPSRFSGSGSGTDYSLTISTLEQEDFATYFCQQGNALPYTFGGGTKLEIE
[1]
  CYP7α1 expression in HEP3B cells with added FGF19: 67%
  CYP7α1 expression in HEP3B cells without added FGF19: 2 fold
  CYP7α1 expression in HUH7 cells in the absence of FGF19: 3.5 fold
  CYP7α1 expression in HUH7 cells in the presence of FGF19: 2.9 fold
  decrease of basal c-Fos expression in JHH5, JHH7 and HUH7 cell lines: 50%
  decrease of basal c-Fos expression in the PLC/PRF/5 cell line: 75%
  maximum inhibition of colony formation, HUH7 cells: 50%
  maximum inhibition of colony formation, JHH5 cells: 26%
  maximum inhibition of colony formation, PLC/PRF/5 cells: 82%
[2]
  EC50 (read off the curve): 0.04 µg/mL
[3]
  EC50 (read off the curve): 0.04 µg/mL
[4]
  EC50 (read off the curve): 0.5 µg/mL
